Measurements from patent US20230193248A1.

B1: engineered dipeptidyl peptidase clone (SEQ ID NO: 11) derived from dipeptidyl peptidase from Thermomonas hydrothermalis (SEQ ID NO: 10) (protein)
chain: DEGMWVPQQLPEIAGALKKAGLKLDPKQLSDLTGDPMGAVVSLGGCTGSFVSPQGLVATNHHCAYGAIQLNSTPEKNLIKDGFNAPTQADELSAGPNARIYVLEGITDVTAQAKAAMAAAGNDPVARANALEAFEKKITSDCEAEPGYRCRVYSFMGGITYRLFKNLEIKDVRLVYAPPSSVGKFGGDIDMGMWPTHTGDFSFYRAYVGKDGKPAPYSKDNVPYRPKHWLKIADTPLGEGDFVMVAGYPGRTDRYALVAEFENTQNWLYPAISKAYKDQIALVEAAAKDNPEIAVKYAAALAGWNRTSKNFDGQLEGFKRNDVLAIKRREEAAVLEWLRARGKAGTPALEAHAALVKLVADTARTQERDLVLGSFNRTGIIGVAVNLYRLAIERQKPDAEREPGYQQRDLPVIEGSLKQMERRYVPAMDRQLRAYWLDRYVALPAAQHVAAVDAWLGGSDKAAAEAALARLDQSRLGSLEERLKWFNADRAAFEASTDPAIQYAVAVMPTLLAMEQQAKTRYGVALEARPRYLQAVVDYKKSKGQAVYPDANSTLRITYGHVKGYTGLNGKVYTPFTTLEEVAAKETGVEPFDNPKALLEAVAAKRYAGLADARLGTVPVNFLADLDITGGNSGSPVLDANGRLVGLAFAVTLESVASNWVFDPVLTRMISVDQRYMRWIMQEVMPAPQLLEELGVPPRQ
B2: first selected modified cleavase (M15-L Z001) (protein)
chain: MHKTRLVAALAAALATLAPAAWADEGMWVPQQLPEIAGALKKAGLKLDPKQLSDLTGDPMGAVVSLGGCTGSFVSPQGLVATNHHCAYGAIQLNSTPEKNLIKDGFNAPTQADELSAGPNARIYVLEGITDVTAQAKAAMAAAGNDPVARANALEAFEKKITSDCEAEPGYRCRVYSFMGGITYRLFKNLEIKDVRLVYAPPSSVGKFGGDIDMGMWPTHTGDFSFYRAYVGKDGKPAPYSKDNVPYRPKHWLKIADTPLGEGDFVMVAGYPGRTDRYALVAEFENTQNWLYPAISKAYKDQIALVEAAAKDNPEIAVKYAAALAGWNRTSKNFDGQLEGFKRNDVLAIKRREEAAVLEWLRARGKAGTPALEAHAALVKLVADTARTQERDLVLGSFNRTGIIGVAVNLYRLAIERQKPDAEREPGYQQRDLPVIEGSLKQMERRYVPAMDRQLRAYWLDRYVALPAAQHVAAVDAWLGGSDKAAAEAALARLDQSRLGSLEERLKWFNADRAAFEASTDPAIQYAVAVMPTLLAMEQQAKTRYGVALEARPRYLQAVVDYKKSKGQAVYPDANSTLRITYGHVKGYTGLNGKVYTPFTTLEEVAAKETGVEPFDNPKALLEAVAAKRYAGLADARLGTVPVNFLADLDITGGNSGSPVLDANGRLVGLAFAGTLESVASNWVFDPVLTRMISVDQRYMRWIMQEVMPAPQLLEELGVPPRQ

What was measured:
[1] = biological target: T1, M15-K(biotin)-AAR (SEQ ID NO: 8) peptide
T1 chain: KAAR

[2] = biological target: M15-L-P1 target polypeptide, P1 = M
[3] = biological target: M15-L-P1 target polypeptide, P1 = I
[4] = biological target: M15-L-P1 target polypeptide, P1 = Q
[5] = biological target: M15-L-P1 target polypeptide, P1 = A
[6] = biological target: M15-L-P1 target polypeptide, P1 = L
[7] = biological target: M15-L-P1 target polypeptide, P1 = V

| Protein | percentage of conversion to cleavage product M15-K(biotin)-A (HPLC, UV absorbance at 254 nm) [1] | cleavage of single labeled NTAA [2] | cleavage of single labeled NTAA [3] | cleavage of single labeled NTAA [4] | cleavage of single labeled NTAA [5] | cleavage of single labeled NTAA [6] | cleavage of single labeled NTAA [7] |
| --- | --- | --- | --- | --- | --- | --- | --- |
| B1 | about 10% of the model peptide was converted to the cleavage product, M15-K(biotin)-A | – | – | – | – | – | – |
| B2 | – | provided 100% cleavage | provided 100% cleavage | provided 100% cleavage | provided 100% cleavage | provided 100% cleavage | provided 100% cleavage |
